First the molecules themselves.
B1: library; a variant is named by its letters at X, in order (parent)
chain: MNIQIGELAKRTACPVVTIRFYEQEGLLPPPGRSRGNFRLYGEEHVERLQFIRHCRSLDMPLSDVRTLLSYRKRPDQDCGEVXMLLDEHIRQVESRIGALLELKHHLVELREACSGARPAQSCGILQXLSXCVCXTRGTTAHXSD

In data set [1] the parent is B1. The data set can be described thus: sfGFP reporter fluorescence (15 h) (µM FITC); higher = higher leak. Conditions: library round: Round 2; ligand: none. An outline of the steps:
(§1)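 An Echo normalized PCR-made linear PbrR templates to 5 nM and assembled 1 μL reactions in BL21 Star (DE3) PANOx-SP extract carrying the pPbrR-sfGFP reporter plasmid and 30 μg/mL GamS. Reactions received 1 µM lead chloride, 30 µM zinc acetate or no metal and stood 15 hr at 30 °C. Fluorescence at 485/528 nm (Synergy Neo2) was converted with FITC standard curves made in 50 mM sodium borate pH 8.5. Endpoint sfGFP signal is given in µM FITC, from up to three biological replicates.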

The variants in data set [2] derive from B1. The data set can be described thus: sfGFP reporter fluorescence (15 h) (µM FITC); higher = stronger transcriptional activation. As to conditions: library round: Round 2. Put shortly:
as §1

± gives the standard deviation of the averaged measurements.

As for MNIQIGELAKRTACPVVTIRFYEQEGLLPPPGRSRGNFRLYGEEHVERLQFIRHCRSLDMPLSDVRTLLSYRKRPDQDCGEVNMLLDEHIRQVESRIGALLELKHHLVELREACSGARPAQSCGILQGLSDCVCDARGTAAHRSD, the values for the sfGFP reporter fluorescence in data set [1], in data set [2] (ligand: 1 µM Pb) and in data set [2] (ligand: 30 µM Zn) were 0.0505 ± 0.0017, 0.0665 ± 0.0039 and 0.801 ± 0.079, respectively.
The matching figures for MNIQIGELAKRTACPVVTIRFYEQEGLLPPPGRSRGNFRLYGEEHVERLQFIRHCRSLDMPLSDVRTLLSYRKRPDQDCGEVTMLLDEHIRQVESRIGALLELKHHLVELREACSGARPAQSCGILQHLSDCVCDTRGTTAHWSD: 0.0458 ± 0.0021, 0.0682 ± 0.011 and 0.0889 ± 0.0029.
Take MNIQIGELAKRTACPVVTIRFYEQEGLLPPPGRSRGNFRLYGEEHVERLQFIRHCRSLDMPLSDVRTLLSYRKRPDQDCGEVTMLLDEHIRQVESRIGALLELKHHCVELREACSGARPAQSCGILQILSDCVCSTRGTTAHPSD: the sfGFP reporter fluorescence turned out to be 0.384 ± 0.026 in data set [1], 1.42 ± 0.32 in data set [2] (ligand: 1 µM Pb) and 3.28 ± 0.26 in data set [2] (ligand: 30 µM Zn).
Taken in the same sequence, the figures for MNIQIGELAKRTACPVVTIRFYEQEGLLPPPGRSRGNFRLYGEEHVERLQFIRHCRSLDMPLSDVRTLLSYRKRPDQDCGEVNMLLDEHIRQVESRIGALLELKHHLVELREACSGARPAQSCGILQHLSCCVCDTRGTTAHASD were 0.0569 ± 0.0056, 0.0749 ± 0.0034 and 0.446 ± 0.063.
The matching figures for MNIQIGELAKRTACPVVTIRFYEQEGLLPPPGRSRGNFRLYGEEHVERLQFIRHCRSLDMPLSDVRTLLSYRKRPDQDCGEVNMLLDEHIRQVESRIGALLELKHHLVELREACSGARPAQSCGIIQGLSACVCDTRGTTAHWSD: 0.0633 ± 0.0051, 0.0592 ± 0.0043 and 0.317 ± 0.024.
Take MNIQIGELAKRTACPVVTIRFYEQEGLLPPPGRSRGNFRLYGEEHVERLQFIRHCRSLDMPLSDVRTLLSYRKRPDQDCGEVNMLLDEHIRQVESRIGALLELRHHCVELREACSGARPAQSCGILQMLSDCVCATRGTTAHASD: the sfGFP reporter fluorescence was found to be 2.28 ± 0.3 in data set [1], 3.13 ± 0.41 in data set [2] (ligand: 1 µM Pb) and 3.83 ± 0.4 in data set [2] (ligand: 30 µM Zn).
The matching figures for MNIQIGELAKRTACPVVTIRFYEQEGLLPPPGRSRGNFRLYGEEHVERLQFIRHCRSLDMPLSDVRTLLSYRKRPDQDCGEVNMLLDEHIRQVESGIGALLELVHHLVELREACSGARPAQSCGILQMLSDCVCDTRGTTAHPSD: 0.0669 ± 0.0034, 0.0841 ± 0.003 and 0.58 ± 0.055.
For the variant MNIQIGELAKRTACPVVTIRFYEQEGLLPPPGRSRGNFRLYGEEHVERLQFIRHCRSLDMPLSDVRTLLSYRKRPDQDCGEVNMLLDEHIRQVESRIGALLELKHHLVELREACSGARPAQSCGILQGLSTCPCYTRGTTAHPSD, the results for the sfGFP reporter fluorescence in data set [1], in data set [2] (ligand: 1 µM Pb) and in data set [2] (ligand: 30 µM Zn) were 0.0724 ± 0.0067, 0.148 ± 0.0095 and 0.951 ± 0.42, respectively.
Taken in the same sequence, the figures for MNIQIGELAKRTACPVVTIRFYEQEGLLPPPGRSRGNFRLYGEEHVERLQFIRHCRSLDMPLSDVRTLLSYRKRPDQDCGEVTMLLDEHIRQVESRIGALLELKHHLVELREACSGARPAQSCGILQGLSHCVCPTRGTTAHYSD were 0.0455 ± 0.0011, 0.116 ± 0.0064 and 0.214 ± 0.017.
Taken in the same sequence, the figures for MNIQIGELAKRTACPVVTIRFYEQEGLLPPPGRSRGNFRLYGEEHVERLQFIRHCRSLDMPLSDVRTLLSYRKRPDQDCGEVNMLLDEHIRQVESRIGALLELKHHCVELREACSGARPAQSCGILQMLSDCVCATRGTTAHPSD were 2.23 ± 0.28, 3.21 ± 0.21 and 3.29 ± 0.5.
For MNIQIGELAKRTACPVVTIRFYEQEGLLPPPGRSRGNFRLYGEEHVERLQFIRHCRSLDLNLSDVRTLLSYRKRPDQDCGEVNMLLDEHIRQVESRIGALLELVHHCVELREACSGARPAQSCGILQMLSDCVCDTRGTTAHPSD, the figures for the sfGFP reporter fluorescence in data set [1], in data set [2] (ligand: 1 µM Pb) and in data set [2] (ligand: 30 µM Zn) were 0.759 ± 0.1, 1.83 ± 0.19 and 3.54 ± 0.46, respectively.
MNIQIGELAKRTACPVVTIRFYEQEGLLPPPGRSRGNFRLYGEEHVERLQFIRHCRSLDMPLSDVRTLLSYRKRPDQDCGEVNMLLDEHIRQVESRIGALLELRHHLVELREACSGARPAQSCGILQILSCCVCDTRGTTAHPSD: the sfGFP reporter fluorescence came out at 0.0714 ± 0.0069 in data set [1], 0.134 ± 0.0046 in data set [2] (ligand: 1 µM Pb) and 0.244 ± 0.034 in data set [2] (ligand: 30 µM Zn).
As for MNIQIGELAKRTACPVVTIRFYEQEGLLPPPGRSRGNFRLYGEEHVERLQFIRHCRSLDMPLSDVRTLLSYRKRPDQDCGEVNMLLDEHIRQVESRIGALLELKHHLVELREACSGARPAQSCGILQGLSACVVDTRGTTAHTSD, the figures for the sfGFP reporter fluorescence in data set [1], in data set [2] (ligand: 1 µM Pb) and in data set [2] (ligand: 30 µM Zn) were 0.103 ± 0.013, 0.155 ± 0.03 and 2.64 ± 0.21, respectively.
Taken in the same sequence, the figures for MNIQIGELAKRTACPVVTIRFYEQEGLLPPPGRSRGNFRLYGEEHVERLQFIRHCRSLDMPLSDVRTLLSYRKRPDQDCGEVSMLLDEHIRQVESRIGALLELVHHLVELREACSGARPAQSCGILQGLSDCVCVTRGTTAHPSD were 0.067 ± 0.0056, 0.134 ± 0.0074 and 1.3 ± 0.15.

The values are drawn from the supplement of paper PMC12783771.
